The text below walks through data of patent US20160185857A1 (published 2016).

This assay has as its target T1, recombinant soluble human FcγRIIB (UniProt P31994 43-217).
T1 chain: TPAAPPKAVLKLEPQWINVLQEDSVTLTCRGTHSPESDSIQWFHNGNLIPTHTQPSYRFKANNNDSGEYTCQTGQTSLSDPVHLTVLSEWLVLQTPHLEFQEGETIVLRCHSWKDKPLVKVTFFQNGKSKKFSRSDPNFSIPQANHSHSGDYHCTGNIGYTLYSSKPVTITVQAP
The assay can be described thus: SPR. A general note: Surface plasmon resonance follows binding to a sensor surface in real time, without labels.

B1: chGB3_N297A (chimeric GB3, prior art antibody of WO 2005/051999, N297A format) (antibody, V domains shown)
VH: VQLQQSGPELVKPGASVKISCKASGYTFTDYYIYWVKQWPGQGLEWIGWIFPGTGNTYYNENFKDKATLTIDRSSSTAYMLLGSLTSEDSAVYFCYGPFAYWGQ
VL: RIQLTQSPSSLSASLGERVSLTCRASQEISGYLSWLQQKPDGTIKRLIYATSALDSGVPKRFSGSGSGSNYSLTISSLESEDFADYYCLQYANYPYTFGGGTKL
As to B1, the koff stood at 0.01 s⁻¹.

B2: ch8A6_wt (antibody)
chain 1: EVQLVESGGDLVQPGRSLRLSCAASGFTFSDYYMAWVRQAPKKGLEWVASISSDGSNTYYGDSVKGRFTISRDNTRSNLYLQMNSLRSEDTATYYCARPGDYWGQGVMVTVSS
chain 2: NIVMTQSPTSMFISVGDRVTMNCKASQNVGTYVDWFQQKTGQSPTLLIFGASNRYTGVPDRFTGSGSGTDFTLSISNMQAEDLAVYYCLQYNYHPYTFGPGTTLELKR
As for B2, the off-rate (koff) came out at 0.00049 s⁻¹.

As usually defined, the koff is a measure of how fast the partners let go of each other.
